Experimental data: the supplement of paper PMC10724198
± gives the standard deviation of the averaged measurements.

System: Saccharomyces cerevisiae
Assay: protein stability index of tFT-peptide fusion (C-terminal peptide) (PSI (0-1 scale)); higher = more stable (slower turnover)
Details: temperature: 30 C
Method: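 MPS profiling in S. cerevisiae of the yeast C-terminome library: the last 12 aa of each annotated ORF are fused to the C-terminus of a sfGFP-mCherry timer, after a GGGS linker. Cells are FACS-sorted into 8 mCherry/sfGFP bins and deep-sequenced. PSI runs from 0 (unstable) to 1 (stable); wild type and das1Δ backgrounds, two technical replicates each.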

[1] = genetic background: das1 deletion

| Sequence | protein stability index [1] | protein stability index (genetic background: wild type) |
| --- | --- | --- |
| TKHTPKYLLNTI [YNL179C C-terminal 12 aa] | 0.6926 ± 0.0048 | 0.6621 ± 0.00097 |
| SPRLKENEHVTN [MPC54 C-terminal 12 aa] | 0.693 ± 0.013 | 0.724 ± 0.072 |
| RLSRWFNETENI [MEI4 C-terminal 12 aa] | 0.756 ± 0.043 | 0.727 ± 0.096 |
| SISHPENKVLHK [YNL195C C-terminal 12 aa] | 0.689 ± 0.0083 | 0.699 ± 0.0077 |
| MLKFLAVVFFLL [YGL218W C-terminal 12 aa] | 0.392 ± 0.018 | 0.217 ± 0.011 |
| HNVCGRAFSLPL [HSL7 C-terminal 12 aa] | 0.7123 ± 0.0037 | 0.677 ± 0.035 |
| MLAKIHKLNNKA [RFC4 C-terminal 12 aa] | 0.7026 ± 0.0053 | 0.704 ± 0.066 |
| HRIASKIRSKLR [GIP4 C-terminal 12 aa] | 0.686 ± 0.0021 | 0.714 ± 0.03 |
| LRRSFAIYTLGH [MCM2 C-terminal 12 aa] | 0.647 ± 0.027 | 0.6562 ± 0.0043 |
| ERCSLQNPFYSI [YNR066C C-terminal 12 aa] | 0.7315 ± 0.0067 | 0.696 ± 0.0016 |
| DKAAPALKKVKM [SFL1 C-terminal 12 aa] | 0.675 ± 0.026 | 0.71 ± 0.041 |
| LRFEEMNSDLVQ [ROG1 C-terminal 12 aa] | 0.705 ± 0.0096 | 0.747 ± 0.12 |
| NESLNDYFTGIK [YBP1 C-terminal 12 aa] | 0.706 ± 0.0084 | 0.772 ± 0.16 |
| TKARTLGEGSVN [YDR476C C-terminal 12 aa] | 0.686 ± 0.032 | 0.674 ± 0.021 |
| YWRKQYPEVDLP [UIP3 C-terminal 12 aa] | 0.728 ± 0.018 | 0.744 ± 0.017 |
| LQPDVPPSSGRS [KEX2 C-terminal 12 aa] | 0.695 ± 0.033 | 0.703 ± 0.011 |
| VVVVVPAVVKTR [SSO1 C-terminal 12 aa] | 0.503 ± 0.011 | 0.5221 ± 0.0046 |

| Sequence | protein stability index [1] | protein stability index (genetic background: wild type) |
| --- | --- | --- |
| MFLSIQPQEARP [KAP120 C-terminal 12 aa] | 0.72 ± 0.0086 | 0.713 ± 0.011 |
| GQGTTLGGPFFP [ALB1 C-terminal 12 aa] | 0.724 ± 0.019 | 0.7215 ± 0.0052 |
| EQVRFKNINYKS [AZF1 C-terminal 12 aa] | 0.654 ± 0.0011 | 0.673 ± 0.014 |
| LTSYINVHLVYV [YNL285W C-terminal 12 aa] | 0.301 ± 0.016 | 0.325 ± 0.0042 |
| ENFNEVFEAIRS [RSC3 C-terminal 12 aa] | 0.6822 ± 0.0037 | 0.709 ± 0.016 |
| ILDDTRQALGNT [PCL8 C-terminal 12 aa] | 0.703 ± 0.034 | 0.737 ± 0.013 |
| SAIGSDIVNSIF [LSB1 C-terminal 12 aa] | 0.7044 ± 0.0053 | 0.676 ± 0.024 |
| IDLVLVVNVLSL [YCR064C C-terminal 12 aa] | 0.425 ± 0.015 | 0.428 ± 0.0062 |
| RLIFYPDEYEQL [PRE3 C-terminal 12 aa] | 0.743 ± 0.012 | 0.736 ± 0.071 |
| LPFSVEPTTSRM [YFR036W-A C-terminal 12 aa] | 0.6999 ± 0.0065 | 0.687 ± 0.017 |
| IIGALNLYDGLI [FRQ1 C-terminal 12 aa] | 0.737 ± 0.017 | 0.763 ± 0.12 |
| KMGQSFNAAGKF [TIM10 C-terminal 12 aa] | 0.692 ± 0.033 | 0.683 ± 0.0072 |
| AIEEGAGAFLLS [UFD4 C-terminal 12 aa] | 0.706 ± 0.03 | 0.6771 ± 0.0053 |
| KSLRSSFGKKLI [PHS1 C-terminal 12 aa] | 0.706 ± 0.052 | 0.717 ± 0.046 |
| CLILSQYSILMD [ATG18 C-terminal 12 aa] | 0.631 ± 0.038 | 0.616 ± 0.045 |
| DEFIKKNSDKIR [EXO84 C-terminal 12 aa] | 0.676 ± 0.047 | 0.64 ± 0.037 |
| EEEKRRRKKGIR [SPT2 C-terminal 12 aa] | 0.706 ± 0.022 | 0.662 ± 0.0095 |
